± gives the uncertainty stated by the source.

A short description of the data set: protein stability index of a GFP-peptide fusion (yeast GPS) (PSI 1-4); higher = more stable; sorted into four equal gates, so the index is relative within each strain. The method, boiled down: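 For each peptide, the protein stability index sums the read frequency in every gate after multiplying it by the gate number. Read frequencies came from plasmids that were PCR-amplified from each gate and Illumina-sequenced, with reads assigned to strains by barcodes. The gates were four equal bins of GFP/Cherry fluorescence ratio applied to mid-log yeast in leucine-free medium carrying a pooled library of tiled 17-residue yeast protein peptides fused downstream of GFP on a Cherry-expressing plasmid.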

For the sequence NIGQQQVKKPRKQRVKK [SWI1], the protein stability index came to 3.47 ± 0.12 (doa10∆), 3.35 ± 0.13 (pdr5∆), 3.42 ± 0.084 (san1∆) and 3.48 ± 0.11 (ubr1∆).
For the sequence NLTEFVQMDKIRKIVRK [AAR2], the protein stability index is, setting by setting: (doa10∆) 2.77 ± 0.14; (pdr5∆) 2.43 ± 0.1; (san1∆) 1.9 ± 0.13; (ubr1∆) 2.34 ± 0.13.
On to EGNVPQTLAPVPYETFI [RPL21A], for which the protein stability index was 3.06 ± 0.066 (doa10∆), 2.74 ± 0.056 (pdr5∆), 3.08 ± 0.052 (san1∆) and 2.78 ± 0.056 (ubr1∆).
The corresponding values for VIKTLTVDVSSPTENGV [RPL22B] are 2.3 ± 0.14, 2.55 ± 0.089, 2.32 ± 0.13 and 2.83 ± 0.064.
Turning to YYAHSIPSSKIDDFTTR [SNU114], the protein stability index reads like this: (doa10∆) 2.96 ± 0.07; (pdr5∆) 3.15 ± 0.078; (san1∆) 3.08 ± 0.067; (ubr1∆) 3.32 ± 0.077.
For the sequence MIQTPRELLNPRYTYHT [YML031W/NDC1], the protein stability index turned out to be 2.95 ± 0.078 (doa10∆), 2.83 ± 0.081 (pdr5∆), 2.98 ± 0.11 (san1∆) and 3.35 ± 0.14 (ubr1∆).
Taken in the same sequence, the figures for RNNHNSNTSTSKMLDAA [SNF12] were 3.01 ± 0.058, 3.04 ± 0.044, 3.22 ± 0.092 and 3.01 ± 0.048.
As for SGFYTFSLLDHHYRPDM [PRE1], the protein stability index stood at 3.1 ± 0.28 (pdr5∆) and 2.99 ± 0.13 (san1∆).
The sequence ENLVQGNGNVSESDIIN [YCG1] returned a protein stability index (doa10∆) of 3.78 ± 0.29.
As to KAGVKESDTGLAPSHLW [RPT1], the protein stability index is, setting by setting: (doa10∆) 2.93 ± 0.16; (san1∆) 3.09 ± 0.12.
With TTGGDYILSLVSIKDST [YMR129W/POM152], the protein stability index is, setting by setting: (doa10∆) 1.99 ± 0.042; (pdr5∆) 2.04 ± 0.034; (san1∆) 1.89 ± 0.052; (ubr1∆) 1.68 ± 0.028.
Taken in the same sequence, the figures for AEASGEAADEADEADEE [RPS9A] were 3.35 ± 0.23, 3.03 ± 0.28, 3.01 ± 0.15 and 3.45 ± 0.12.
As for VHRITDEEASYKLGKVK [RPS4A], the protein stability index runs as follows: (doa10∆) 3.01 ± 0.087; (pdr5∆) 3.13 ± 0.13; (san1∆) 2.98 ± 0.12; (ubr1∆) 3.07 ± 0.12.
Regarding GEGERFTVDKKIAERSL [SKP1], the protein stability index runs as follows: (doa10∆) 3.44 ± 0.12; (pdr5∆) 3.38 ± 0.12; (san1∆) 3.36 ± 0.12; (ubr1∆) 3.37 ± 0.24.
AMDLAQMLIQGVWDVDN [BRR2]: the protein stability index is, setting by setting: (doa10∆) 2.85 ± 0.064; (pdr5∆) 2.78 ± 0.067; (san1∆) 2.18 ± 0.058; (ubr1∆) 2.12 ± 0.052.
Taken in the same sequence, the figures for YFNQLKPYYFSNNHKLS [RPN12] were 1.17 ± 0.057, 1.32 ± 0.077, 1.19 ± 0.13 and 1.24 ± 0.04.
Turning to FIRKYINQKALRKIQAL [GAL11], the protein stability index stood at 2.38 ± 0.25 (doa10∆), 1.49 ± 0.22 (pdr5∆) and 1.79 ± 0.23 (san1∆).
YSSIPSLQDSIIKQENF [SSN2]: the protein stability index runs as follows: (doa10∆) 2.7 ± 0.13; (pdr5∆) 2.99 ± 0.17; (san1∆) 2.5 ± 0.086; (ubr1∆) 2.79 ± 0.14.
Regarding SVKDYRPAEETEAQAEP [RPS3], the protein stability index runs as follows: (doa10∆) 2.76 ± 0.065; (pdr5∆) 3.07 ± 0.068; (san1∆) 3.11 ± 0.041; (ubr1∆) 2.93 ± 0.043.
The corresponding values for LMASVILDSLPSVIHSS [YDL116W/NUP84] are 1.76 ± 0.042, 1.38 ± 0.039, 1.34 ± 0.067 and 1.48 ± 0.034.
With IDALGTEFSKNDLEVGV [SCL1], the protein stability index came to 2.67 ± 0.097 (doa10∆), 2.46 ± 0.11 (pdr5∆), 2.49 ± 0.11 (san1∆) and 2.65 ± 0.08 (ubr1∆).
As to LRGCKFLQSVDITGIRD [GRR1], the protein stability index is 1.72 ± 0.034 (doa10∆), 2.03 ± 0.046 (pdr5∆), 1.89 ± 0.053 (san1∆) and 1.83 ± 0.04 (ubr1∆).
For the sequence MSMSSTVIKFRAGVCEY [RPN13], the protein stability index runs as follows: (pdr5∆) 2.58 ± 0.18; (san1∆) 2.22 ± 0.13.
As to VRTDTTYPAGFMDVITL [RPS4A], the protein stability index by setting is: (doa10∆) 2.37 ± 0.11; (pdr5∆) 2.57 ± 0.1; (san1∆) 2.92 ± 0.1; (ubr1∆) 2.78 ± 0.098.
Turning to SSQKDGNDFKFNYQGDE [REC8], the protein stability index runs as follows: (doa10∆) 3.41 ± 0.067; (pdr5∆) 3.45 ± 0.072; (san1∆) 3.43 ± 0.051; (ubr1∆) 3.4 ± 0.058.
Take IQPKNSDDQQEAVELVI [YML103C/NUP188]: the protein stability index came to 2.85 ± 0.19 (doa10∆), 3.4 ± 0.13 (san1∆) and 3.34 ± 0.12 (ubr1∆).
Take VEKVATAVLSTTARAKA [RPN2]: the protein stability index (doa10∆) was 3 ± 0.12, the protein stability index (pdr5∆) stood at 3.32 ± 0.086, the protein stability index (san1∆) came to 2.93 ± 0.13 and the protein stability index (ubr1∆) is 3.1 ± 0.081.
Consider IGTGEHIHDLEKFSPKS [SRP54], for which the protein stability index was found to be 2.33 ± 0.067 (doa10∆), 2.43 ± 0.053 (pdr5∆), 2.9 ± 0.053 (san1∆) and 2.03 ± 0.042 (ubr1∆).
As to TVGSSNGGLIHVVTREK [RPO21], the protein stability index amounted to 2.98 ± 0.15 (doa10∆), 3.19 ± 0.12 (pdr5∆), 2.87 ± 0.13 (san1∆) and 3.09 ± 0.07 (ubr1∆).
On to LQMDYKDDMKVDDAIEL [PRE9], for which the protein stability index was found to be 3.21 ± 0.14 (doa10∆), 3.42 ± 0.081 (pdr5∆), 3.21 ± 0.067 (san1∆) and 3.51 ± 0.071 (ubr1∆).
For the sequence MSFSSLYKTFFKRNAVF [QCR9], the protein stability index worked out at 1.67 ± 0.066 (doa10∆), 1.33 ± 0.053 (pdr5∆), 1.34 ± 0.091 (san1∆) and 1.32 ± 0.048 (ubr1∆).
The corresponding values for VKAQRPITGASLDLIKE [RPL24A] are 2.42 ± 0.062, 2.07 ± 0.049, 2.69 ± 0.074 and 2.73 ± 0.05.
As for GKLVESEDSMNVQLRDV [SMD3], the protein stability index is 3.26 ± 0.14 (doa10∆), 3.32 ± 0.1 (pdr5∆), 3.33 ± 0.065 (san1∆) and 3.26 ± 0.041 (ubr1∆).
As to MPNSSLQPFYSQPTAAG [DSN1], the protein stability index reads like this: (doa10∆) 2.33 ± 0.076; (pdr5∆) 2.71 ± 0.067; (san1∆) 2.44 ± 0.056; (ubr1∆) 2.78 ± 0.064.
As for NDNDITVKENESDSKLQ [UBP6], the protein stability index is, setting by setting: (doa10∆) 3.48 ± 0.12; (pdr5∆) 3.24 ± 0.096; (san1∆) 3.15 ± 0.071; (ubr1∆) 3.35 ± 0.081.
RLPTFLKHKSICSCVNR [RPP1]: the protein stability index is, setting by setting: (doa10∆) 1.84 ± 0.086; (pdr5∆) 2.24 ± 0.11; (san1∆) 1.98 ± 0.13; (ubr1∆) 2.83 ± 0.08.
Turning to SFSFSIPSKNTPDASKP [YLR335W/NUP2], the protein stability index worked out at 2.42 ± 0.04 (doa10∆), 2.45 ± 0.042 (pdr5∆), 2.28 ± 0.045 (san1∆) and 2.5 ± 0.037 (ubr1∆).
For the sequence ALVKPETQFKLSRPYKA [CDC53], the protein stability index amounted to 2.41 ± 0.068 (doa10∆), 2.64 ± 0.059 (pdr5∆), 2.59 ± 0.059 (san1∆) and 2.34 ± 0.063 (ubr1∆).
Turning to AATVHTATSSSIILSDK [SSN2], the protein stability index was 2.19 ± 0.043 (doa10∆), 2.29 ± 0.032 (pdr5∆), 2.02 ± 0.053 (san1∆) and 2.39 ± 0.041 (ubr1∆).
